The values that follow come from the RNAGym collection of RNA variant scans (doi:10.1093/nar/gkz1192).

To fix the notation:
B1: CPEB3 Ribozyme (parent)
chain: UAACAGGGGGCCACAGCAGAAGCGUUCACGUCGCAGCCCCUGUCAGAUUCUGGUGAAUCUGCGAAUUCUGCUGUAUAUCUC

Variants of B1 are the subject of this data set. As to the kind of experiment: self-cleavage, relative activity (ratio to wild type); higher = more cleavage; in vitro, sequencing. The method, boiled down:
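Relative activity compares each variant's cleaved/total read fraction with that of the unmutated ribozyme. To get these fractions, barcoded CPEB3 ribozyme libraries from rounds of error-prone PCR were transcribed with T7 RNA polymerase for 5 hours at 37°C and then given 15 min of DNase I treatment before EDTA was added. The RNAs were reverse transcribed with template switching and sequenced on Illumina, and DNA sequencing linked barcodes to variants. A minimum of 5 reads applied, and three batches were averaged.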
For UAACAGGGGGCCACAGCAGAAGCGUUCACGUCGCAGCCACUGUCAGAUUCUGGUGAAUCUGCGGAUUCUGCUGUAUAUCUC [C39A A64G], the self-cleavage was found to be 0.05.

With UAACAGGGGGCCACAUCAGAAGCGUUCACGUCGCAGCCCCUGUCGGAUUCUGGUGAAUCUGCGAAUUCUGCUGUAUAUCUC [G16U A45G], the self-cleavage was 0.21.

With UAACAGGGGGCCACAGCAGAAGCGUUCACGUCGCAGACCCCGUCAGAUUCUGGUGAAUCUGCGAAUUCUGCUGUAUAUCUC [C37A U41C], the self-cleavage amounted to 0.25. On to UAACAGGGGGCCACAGAAGAAGCGGUCACGUCGCAGCCCCUGUCAGAUUCUGGUGAAUCUGCGAAUUCUGCUGUAUAUCUC [C17A U25G], for which the self-cleavage came to 0.47. Next, UAACAGGGGGCCACAGCAGAAGCGUUCACGUCGCAGCCCCUGUCAGAUUCUGGUGAAUCUGCAAAUUCUGCUGAAUAUCUC [G63A U74A]: 0.33. As for UAACAGGGGGCCACAGCAGAAGCGUUCACGUCGCAGCCCCUGACAGAUUCUGGUGAAUCUGCGAAUUCUGCUGUAUUUCUC [U43A A77U], the self-cleavage was 1.23. Next, UAACAGGGGGCCACAGCCGAAGCGUUCACGUCGCAGCCCCUGUCAGAUUCUGGUGAAUCUGUGAAUUCUGCUGUAUAUCUC [A18C C62U]: 0.39; UAACAGGGGGCCACAGCAGAAGCGUUCACGUCGCAUCCCCUGUCAGAUUCUGGUGAAUCUGCGAAUUCUGUUGUAUAUCUC [G36U C71U]: 0.1; UAACAGGGGGCCACUGCAGAAGCGUUCACGUCGCAGCCCCUGUCAGAUUCUGGUGAAUCUCCGAAUUCUGCUGUAUAUCUC [A15U G61C]: 0.07.

Consider UAACAGGGGGCCACCGCAGAAGCGUUCACGUCGCAGCCCCUGUCAGAUUCUGGUGAAUCUGCGAAGUCUGCUGUAUAUCUC [A15C U66G], for which the self-cleavage came out at 0.45. Next, UAACAGGGGGCCACAGCAGAAGCGUUCACGUCGCAGCCCCUGUCAGAUUCUGGUGAAUCUGCGAAUUUUGCCGUAUAUCUC [C68U U72C]: 0.93; UAACAGGGGGCCACAGCAGAAGCGUUCACGUCGCAGCCCCUGUCAGAUUCUGGUGAACCUGCAAAUUCUGCUGUAUAUCUC [U58C G63A]: 0.51; UAACAGGGGGCCACAGCAGAAGCGUUCACGUCGCAGCCCCUGUCAGAUUCUGGUGAUUUUGCGAAUUCUGCUGUAUAUCUC [A57U C59U]: 0.21. Regarding UAACAGGGGGCCACAGCAGAAGCGUUCACGUCGCAGCCCCUCUCAGAUUCUGGUGAAUCUGCGAAUUCUGCUGCAUAUCUC [G42C U74C], the self-cleavage was 0.3. Next, UAACAGGGGGCCACAGCAGAAGCGUUCACGUCGCAGCCCCUGUCAGAUUCUGGUGAAUCUGUGAAUUCUGCUAUAUAUCUC [C62U G73A]: 0.16; UAACAGGGGGCCACAGCAGAAGCGUUCACGUCGCAACCCCAGUCAGAUUCUGGUGAAUCUGCGAAUUCUGCUGUAUAUCUC [G36A U41A]: 0.18; UAACAGGGGGCCACAGCAGAAGCGUUCACGUCGCAGCCCCUGUCAGAUUCUGGUCAGUCUGCGAAUUCUGCUGUAUAUCUC [G55C A57G]: 0.37. As to UAACAGGGGGCCACAGCAGAAGCGUUCACGUCGCAUCCCCUGUCAGAUUCUGGCGAAUCUGCGAAUUCUGCUGUAUAUCUC [G36U U54C], the self-cleavage turned out to be 0.26.

For the variant UAACAGGGGGCCACAGCAGAAGGGUUCACGUCGCUGCCCCUGUCAGAUUCUGGUGAAUCUGCGAAUUCUGCUGUAUAUCUC [C23G A35U], the self-cleavage stood at 0.19.

As to UAACAGGGGGCCACAGCAGAAGCGUUCAUGUCGCAGCCCCUGUCAGAUUCUGGCGAAUCUGCGAAUUCUGCUGUAUAUCUC [C29U U54C], the self-cleavage amounted to 0.42. In the case of UAACAGGGGGCCACAGCAGAAGCGUUCACGUCGCAGCCCCAGUCAGGUUCUGGUGAAUCUGCGAAUUCUGCUGUAUAUCUC [U41A A47G], the self-cleavage turned out to be 0.29. As for CAACAGGGGGCCACAGCAGAAGCGUUCUCGUCGCAGCCCCUGUCAGAUUCUGGUGAAUCUGCGAAUUCUGCUGUAUAUCUC [U1C A28U], the self-cleavage was 0.67.

For the variant UAACAGGGGGCCACAGCAGAAGCGUUCACGUCGCAGCCCCUAUCAGAUUCUGCUGAAUCUGCGAAUUCUGCUGUAUAUCUC [G42A G53C], the self-cleavage came to 0.29.

As to UAACAGGGGGCCACAGCAGAAGCGUUUACGUCGCAGCCCCUGUCAGAUUCUGGCGAAUCUGCGAAUUCUGCUGUAUAUCUC [C27U U54C], the self-cleavage is 0.35. Take UAACAGUGGGCCACAGCAGAAGCGUUCACGUCGCAGCCCCUGUCAGAUUCUGGUGAAUCUGCGAAUUCUGCUGCAUAUCUC [G7U U74C]: the self-cleavage worked out at 0.46. On to UAACAGGGGACCCCAGCAGAAGCGUUCACGUCGCAGCCCCUGUCAGAUUCUGGUGAAUCUGCGAAUUCUGCUGUAUAUCUC [G10A A13C], for which the self-cleavage came out at 0.28. On to UAACAGGGGGCCUCAGCAGAAGCGUUCACGUCGCAGCACCUGUCAGAUUCUGGUGAAUCUGCGAAUUCUGCUGUAUAUCUC [A13U C38A], for which the self-cleavage came out at 0.12. As for UAACAGGGGGCCACAGCAGAAGCGUUCAUGUCGCCGCCCCUGUCAGAUUCUGGUGAAUCUGCGAAUUCUGCUGUAUAUCUC [C29U A35C], the self-cleavage turned out to be 0.25. On to UAACAGGGGGCCACAGCAGAAGCGUUCACAUCGCAGCCCCUGUCAGAUUCUGGUGAAUCUGCGAAAUCUGCUGUAUAUCUC [G30A U66A], for which the self-cleavage is 0.23. For the variant UAACAGGGCGCCACAGCAGAAGCGUUCACGUCGCAGCCCCUGUCAGAUUCUGGUGAAUCUGCGAAUUCUGCUGUACAUCUC [G9C U76C], the self-cleavage was found to be 0.3. As to UAACAGGGGGCCACAGCUGAAGCGUUCACGUCGCAGCCCCCGUCAGAUUCUGGUGAAUCUGCGAAUUCUGCUGUAUAUCUC [A18U U41C], the self-cleavage was determined as 0.38.

Regarding UAACAGGGGGCCACAGCAUAAGCGUUCACGUCGCAGCCCCUGUCAGAUUCUGGUGAAUCCGCGAAUUCUGCUGUAUAUCUC [G19U U60C], the self-cleavage amounted to 0.28.

As to UAACGGGGGGCCACAGCAGAAGCGUUCACGUCGCAGCCCCUGUCAGAUUCUGGUGAACCUGCGAAUUCUGCUGUAUAUCUC [A5G U58C], the self-cleavage turned out to be 0.43. UAACAGGGGGCCACAGCAGAAGCGUUCACGUCGCAGCCCCAGUCAGAUUCUGGUGAAUCUGCGAAUUCUGCUGUAUAUCUA [U41A C81A]: the self-cleavage came out at 0.22.
